# B1: rmRANKL: recombinant receptor activator of nuclear factor κ ligand, purchased from R&D Systems (protein, UniProt O35235 139-316, looked up)
# Tumor necrosis factor ligand …: FSGAPAMMEGSWLDVAQRGKPEAQPFAHLTINAASIPSGSHKVTLSSWYHDRGWAKISNMTLSNGKLRVNQDGFYYLYANICFRHHETSGSVPTDYLQLMVYVVKTSIKIPSSHNLMKGGSTKNWSGNSEFHFYSINVGGFFKLRAGEEISIQVSNPSLLDPDQDATYFGAFKVQDID
# System: murine macrophage RAW264.7 cells
# Test: Osteoclastic differentiation of RAW264.7 cells (TRAP stain)
# Assay type: cell-based
# Conditions: for osteoclast differentiation of RAW264.7 (TRAP): no graft carrier
# Description: Grafts (5×5×1 mm, FlexBone 25% HA-25% TCP) were pre-absorbed with varying amounts of growth factors and cytokines to provide an exogenous supply for remodeling. […] The preferred loading dose of RANKL (10 ng/FlexBone graft) was determined by the osteoclastic differentiation of macrophage RAW264.7, induced by the RANKL released from the graft as indicated by positive TRAP stains (purple) of multinucleated cells on Day 6. […] Finally, the preferred loading dose of rhVEGF165 in stimulating the proliferation of human vascular endothelial cells in culture was determined to be 5 ng/graft.
# Osteoclastic differentiation of murine macrophage RAW264.7 cells induced by the rmRANKL released from FlexBone. The bioactivity of the exogenous rmRANKL released from FlexBone is evaluated by its ability to induce osteoclastic differentiation of murine macrophage RAW264.7 cells six days after placing the FlexBone graft pre-loaded with rnRANKL in the RAW264.7 culture. RAW264.7 cells were seeded at 10,000/cm^2 in a 24-well plate in alpha-MEM (0.5 mL/well) supplemented with 10% FBS and 1% Pen-Strep, and allowed to attach overnight. One FlexBone or pHEMA graft freshly loaded with 10-ng rmRANKL was then added to each well (N=3 for each combination) on day one, and the culture was continued for 6 days with media change every two days without additional supplement of rmRANKL. In the positive control well, 10 ng rmRANKL was supplemented directly in the culture media without a graft carrier every two days. In the negative control well, 10 ng rmRANKL was supplemented directly in the culture media without a graft carrier on day one, and the medium was changed every two days without any additional supplement of rmRANKL. […] Grafts were removed from all wells before the cells were stained for tartrate-resistant acid phosphatase (TRAP) activities using the Sigma TRAP kit following the manufacturer's instructions.
molecule,measurement,setting,value
B1,osteoclast differentiation of RAW264.7 (TRAP),"continued supplement of 10-ng every other day, day six",led to the formation of TRAP-positive multinucleated osteoclasts by day six
same,preferred loading dose,"determined by osteoclastic differentiation of RAW264.7, TRAP stains on Day 6",10 ng/FlexBone graft
same,supplement needed every other day to induce differentiation,no graft control,5 ng
same,osteoclast differentiation of RAW264.7 (TRAP),single supplement of 10-ng directly to the culture,not sufficient in inducing the osteoclast differentiation

# — US20100159011A1, “Compositions For Biomedical Applications” (University of Massachusetts Medical School, priority 2007, published 2010)
